PMC7510951 (Cancer research, 2020)

Target: T1, 6xHis-EYA2 ED (human EYA2 residues 253-538) (human, UniProt O00167 253-538)
T1 sequence (looked up): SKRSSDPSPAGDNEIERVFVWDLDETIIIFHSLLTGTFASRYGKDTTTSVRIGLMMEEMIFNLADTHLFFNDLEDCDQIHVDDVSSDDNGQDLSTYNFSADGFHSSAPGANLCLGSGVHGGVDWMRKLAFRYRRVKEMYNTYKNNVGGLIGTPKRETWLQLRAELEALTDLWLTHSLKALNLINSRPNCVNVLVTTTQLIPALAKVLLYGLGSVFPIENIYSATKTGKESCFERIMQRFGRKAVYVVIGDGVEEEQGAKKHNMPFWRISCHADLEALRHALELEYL
Assay: AlphaScreen or HTRF

binding result: binds
B1: GST-SIX1 (human SIX1 residues 1-259) (domain or fragment, UniProt Q15475 1-259, looked up)
chain: MSMLPSFGFTQEQVACVCEVLQQGGNLERLGRFLWSLPACDHLHKNESVLKAKAVVAFHRGNFRELYKILESHQFSPHNHPKLQQLWLKAHYVEAEKLRGRPLGAVGKYRVRRKFPLPRTIWDGEETSYCFKEKSRGVLREWYAHNPYPSPREKRELAEATGLTTTQVSNWFKNRRQRDRAAEAKERENTENNNSSSNKQNQLSPLEGGKPLMSSSEEEFSPPQSPDQNSVLLLQGNMGHARSSNYSLPGLTASQPSHG
